Results reported in patent US20220112288A1 (published 2022).
Changes are numbered by the printed parent chain.

B1: 75110_05L07A (antibody, V domains shown)
VH: EVQLVESGGGLVQPGGSLRLSCAASGFTFSSYWMSWVRQAPGKGLEWVANINQDGSDKYYVDSVKGRFTISRDNVKNSLYLQINSLRAEDTAVYYCAREGGQWLTLDYWGQGTLVTVSS
VL: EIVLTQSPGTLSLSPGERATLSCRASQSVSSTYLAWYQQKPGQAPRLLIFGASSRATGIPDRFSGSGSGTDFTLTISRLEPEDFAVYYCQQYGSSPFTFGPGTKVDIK
notes: Tested as non-clonal AlivaMab Mouse Kappa hybridoma supernatant, captured by anti-mouse IgG Fc sensor
B2: 75110_01J09A (antibody, V domains shown)
VH: B1 VH with A23V, I51T, N52K, Q53E, S71C, V75A, I83M, T105A
VL: DIQMTQSPSSVSASVGDRVTINCRASQGISSWLAWYQQKPGKAPNLLIFGASSLQSGVPSRFSGSGFGTDFSLTITTLQPEDFATYHCQQANSFPWTFGQGTKVEIK
notes: as for B1
B3: 75110_11D03A (antibody, V domains shown)
VH: B1 VH with S56N, D57E, V75A, Y80F, I83M, T105A, T113A
VL: B2 VL with N22T, N45K, L46F, F49S, F67S, S72T, T76S, T77S, H87Y
notes: Tested as clonal hybridoma supernatant from AlivaMab Mouse Kappa mice: human variable regions, human kappa, mouse Fc
B4: 75110_12H19A (antibody, V domains shown)
VH: EVQLVESGGGLVQPGGSLRLSCAASGFTFSSYWMSWVRQAPGQGLEWVANINEDGNEKYHVDSVKGRLTISRDNAKNSLYLQMNSLRGVDTAVYFCAREGGQWLALDYWGQGALVTVSS
VL: B2 VL with T20S, N22T, N45K, F49Y, S53G, F67S, S72T, T76S, T77S, H87Y
notes: as for B3
B5: 75110_12H17A (antibody, V domains shown)
VH: B4 VH with S31D, Q43K, N52K, H60Y, L68F, Y80F, G88A, V89E, F95Y
VL: B2 VL with N22T, N45K, L46F, F49S, S63T, F67S, S72T, T76S, T77S, H87Y
notes: as for B3
B6: 75110_12C19A (antibody, V domains shown)
VH: B1 VH with N52K, Q53E, V75A, I83M, Y94H, A97V, T105A
VL: B2 VL with A13G, N22T, N45K, F49Y, F67S, S72T, T76S, T77S, A84V, H87Y
notes: as for B3
B7: 75110_14I16A (antibody, V domains shown)
VH: QVQLQESGPGLVKPSETLSLTCTVSNGSISSYYWSWIRQSAGKGLEWIGRIYTSGSTNYNPSLKSRVTMLVDTSKNQFSLKLSSVTAADTAVYYCARDREDYYYYGMDVWGQGTTVTVSS
VL: DIQMTQSPSSLSASVGDRVTITCQASHDISNYLNWYQQKPGKAPKLLLYYASNLETGVPSRFSGSGSGTDFTFTITSLQPEDIGTYSCQQYDNLPLTFGGGTKVEIK
notes: Tested as clonal hybridoma supernatant from AlivaMab Mouse Kappa mice: human variable regions, human kappa, mouse Fc; also called 75110_14116A
B8: 75110_14N19A (antibody, V domains shown)
VH: QVQLQESGPGLVKPSETLSLTCTVSGGSISRYYWSWIRQPAGKGLEWIGRICTSENPNYNPALKSRVTMSVDTSKNQFSLKLSSVTAADTAVYYCARELERLNYYGMDVWGQGTTVTVSS
VL: DIQMTQFPSSLSASVGDRVTITCQASQDISNYLNWYQQKPGKAPKLLIYDASNLESGVPSRFSGRGSGTDFTFTISSLQPEDFATFYCQQYDTLPITFGQGTRLEIK
notes: as for B3
B9: 75110_02E08A (antibody, V domains shown)
VH: QVQLQESGPGLVKPSETLSLTCTVSGGSISTYYWTWIRQPAGKGLEWIGRVYTSGDTNYNPSLKSRVAMSLDTSKNQFSLKLSSVTAADTAVYYCARDSGALYSWNYGDAFDIWGQGTMVTVSS
VL: DIQMTQSPSAMSASVGDRVTITCRASQDISNYLAWFQQKPGKVPKRLIYAASSLQSGVPSRFSGSGSGTEFTLTISSLQPEDFATYYCLQHNSYPRTFGQGTKVEIK
notes: as for B1
B10: 75110_14H13A (antibody, V domains shown)
VH: EVQLVESGGGLVQPGGSLRLSCAASGFTFSNYDMHWVRQATGKGLEWVSTIGTAGDTYYPGSVKGRFTISRKNAKNSLYLQMISLRAGDTAVYYCARGGDYYYGMDVWGQGTTVTVSS
VL: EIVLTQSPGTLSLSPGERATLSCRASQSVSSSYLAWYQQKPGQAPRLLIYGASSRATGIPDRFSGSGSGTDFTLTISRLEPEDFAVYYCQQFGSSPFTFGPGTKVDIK
notes: as for B3
B11: 75110_13C07A (antibody, V domains shown)
VH: B10 VH with G10V, I69L, K72E, I83H, G99A, D100Y, Y101G
VL: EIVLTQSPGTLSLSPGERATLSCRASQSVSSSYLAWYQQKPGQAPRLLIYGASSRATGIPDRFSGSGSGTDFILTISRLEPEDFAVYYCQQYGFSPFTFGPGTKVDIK
notes: as for B3
B12: 75110_10O16A (antibody, V domains shown)
VH: B10 VH with Y32S, K72E, I83N, D100L
VL: ENVLTQSPGTLSLSPGERATLSCRASQSVSSSYLAWYQQKPGQAPRLLIYGASSRATGIPDRFSGSGSGTDFTLTISRLEPEDFAVYYCHQFGSSPFTFGPGTKVDIK
notes: Tested as clonal hybridoma supernatant from AlivaMab Mouse Kappa mice: human variable regions, human kappa, mouse Fc (detected with anti-mouse Fc gamma); also called 75110_10016A
B13: 75110_03C01A (antibody, V domains shown)
VH: QVQLQQWGAGLLKPSETLSLTCAVYGGSFSGYYWSWIRQSPGKGLEWIGEINQSGSTNYNPSLKSRVTISVDTSKDQFSLKLSSVTAADTAVYYCARVINWFDSWGQGSLVTVSS
VL: DIQMTQSPSSVSASVGDRVTITCRASQGISSWLAWYQQKPGNAPKLLIYDASSFQSGVPSRFSGSGSGTDFTLTISSLQTEDFATYYCQQANSFPYTFGQGTKLEIK
notes: as for B1
B14: 75110_13P21A (antibody, V domains shown)
VH: B13 VH with Y25S, S40P, Q53H, Y59C, K75N, D76N, I99L, W101Y, S104Y, S109T
VL: DIQMTQSPSSVSASVGDRVTITCRASPDIANWLAWYQQKPGKAPELLIYAASSLQSGVPSRFSGSGSGTDFTLTISSLQPEDFATYFCQQANSFPLTFGGGTKVESK
notes: as for B1
B15: 75110_13P22A (antibody, V domains shown)
VH: B13 VH with V24A, S56N, V71A, D76N, I99L, S104Y, S109I
VL: B13 VL with S31D, P40S, N42K, K45D, Y49F, D50A, F54L, T80P
notes: as for B1
B16: 75110_13P22A (antibody, V domains shown)
VH: B13 VH with V24A, S56N, V71A, D76N, I99L, S104Y, S109I
VL: B13 VL with S31D, P40S, N42K, K45D, Y49F, D50A, F54L, T80P
notes: as for B3
B17: 75110_04P08A (antibody, V domains shown)
VH: B13 VH with F29L, K81R, S83T, A96T, I99L, S104P, Q107R, S109T
VL: B13 VL with I21L, G28D, S31N, N42K, D50A, F54L
notes: as for B1
B18: 75110_05B13A (antibody, V domains shown)
VH: QVLLEQWGAGLLKPSETLSLTCAVYGGSFSGYYWTWIRQPPGKGLEWIGEINHRGSTNYNPSLKSRVTISIDTSKNQFSLKVKSVTAADTAMYYCTRPDSNWFDPWGQGTLVTVSS
VL: B14 VL with P27Q, A30S, E45K, Y49F, F87Y, S106I
notes: as for B1
B19: 75110_03L12A (antibody, V domains shown)
VH: B13 VH with S40P, Q53H, K75E, D76N, K81T, S83I, A96V, V98L, S104P, S109T
VL: B13 VL with G28D, S31N, N42K, Y49F, D50A, F54L, T80P, E81D, K103N, E105G
notes: as for B1
B20: 75110_13P21A (antibody, V domains shown)
VH: B13 VH with Y25S, S40P, Q53H, Y59C, K75N, D76N, I99L, W101Y, S104Y, S109T
VL: B14 VL
notes: as for B3
B21: 75110_12K21A (antibody, V domains shown)
VH: B13 VH with Y25S, S40P, Q53H, Y59C, K75N, D76N, I99L, W101Y, S104Y, S109T
VL: B14 VL
notes: as for B3
B22: 75110_12K21A (antibody, V domains shown)
VH: B13 VH with Y25S, S40P, Q53H, Y59C, K75N, D76N, I99L, W101Y, S104Y, S109T
VL: B14 VL
notes: as for B1
B23: 75110_06D16A (antibody, V domains shown)
VH: B13 VH with S40P, Q53H, D72V, D76N, I99L, S104P, S109T
VL: B13 VL with G28D, S30A, S31D, N42K, D50A, T80P, Y87F
notes: as for B1
B24: 75110_01D24A (antibody, V domains shown)
VH: B13 VH with S40P, Q53H, K75E, D76N, S83N, V98L, I99V, S104P, S109T
VL: EIQMTQSPSSVSASVGDRVTITCRASQDISNWLAWYQQKPGKAPNLLIFAASSLQTGVPSRFSGSGSGTDFTLTISSLQPDDFATYYCQQANSFPYSFGQGTNLGIK
notes: as for B1
B25: 75110_13C13A (antibody, V domains shown)
VH: B13 VH with Y25S, S40P, Q53H, Y59C, D76N, V92M, I99L, W101F, S104Y, S109T
VL: B14 VL with S7T, D28G, A30S
notes: as for B1
B26: 75110_13C13A (antibody, V domains shown)
VH: B13 VH with Y25S, S40P, Q53H, Y59C, D76N, V92M, I99L, W101F, S104Y, S109T
VL: B14 VL with S7T, D28G, A30S
notes: as for B3
B27: 75110_07B16A (antibody, V domains shown)
VH: B13 VH
VL: B13 VL with N42K, E81D
notes: as for B1
B28: 75110_14G10A (antibody, V domains shown)
VH: EVQLVESGGGLVKPGGSLRLSCAASGFTFSSYSMNWVRQAPGKGLEWVSFISSSSSYIYYADSVKGRFTISRDNAKNSLYLQMNSLRAEDTAVYYCARERGDDYGDYEGAFDIWGQGTMVTVSS
VL: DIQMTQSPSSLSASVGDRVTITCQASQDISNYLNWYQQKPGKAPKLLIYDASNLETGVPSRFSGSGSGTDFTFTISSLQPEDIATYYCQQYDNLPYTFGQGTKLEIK
notes: as for B3

Columns and labels:
[1] = biological target: T1, Recombinant human CD4 (R&D Systems, Cat. 10327-CD) (human, UniProt P01730 26-390, limits assumed); assay: BLI Octet, non-clonal supernatant on AMC sensor, 100 nM human CD4;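 also: hybridoma supernatants diluted 1:3, antibodies captured on AMC biosensors, association and dissociation with CD4 followed, curves smoothed and fit locally with 1:1 binding model for single-point kinetics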
T1 construct: Bought reagent; also called huCD4

[2] = biological target: T1, Recombinant human CD4 (R&D Systems, …); assay: BLI Octet, non-clonal supernatant on AMC sensor, 100 nM human CD4, 1:1 local fit;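 also: Single-concentration kinetics per supernatant, with the 1:1 model fitted across both the association and dissociation phases of the sensorgram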
[3] = biological target: T2, human CD4 on human PBMCs (human, UniProt P01730 26-458); assay: FACS, clonal hybridoma supernatant on human PBMCs
T2 construct: whole, on cells; the CD4-positive gate was set with the control antibodies OKT4 and RPA-T4; also called hCD4

Binder | Response [1] | Kd [2] [nM] | koff [2] [s⁻¹] | kon [2] [M⁻¹ s⁻¹] | % CD4 Stain [3] [%] | gMFI of CD4+ [3] [gMFI]
B1 | 0.12 | 13 | 0.0014 | 100000 |  | 
B2 | 0.28 | 11 | 0.0013 | 120000 |  | 
B3 |  |  |  |  | 30.1 | 217000
B4 |  |  |  |  | 36.8 | 284000
B5 |  |  |  |  | 37.3 | 197000
B6 |  |  |  |  | 24.4 | 56500
B7 |  |  |  |  | 33.2 | 298000
B8 |  |  |  |  | 32.5 | 265000
B9 | 0.08 | 1.5 | 0.00051 | 330000 |  | 
B10 |  |  |  |  | 35.3 | 160000
B11 |  |  |  |  | 37.5 | 56000
B12 |  |  |  |  | 37.2 | 133000
B13 | 0.09 | < 0.001 | < 1e-07 | 150000 |  | 
B14 | 0.12 | 2.04 | 0.000315 | 154000 |  | 
B15 | 0.24 | 0.68 | 0.00013 | 190000 |  | 
B16 |  |  |  |  | 37.5 | 185000
B17 | 0.17 | 1.8 | 0.00022 | 120000 |  | 
B18 | 0.03 | < 0.001 | < 1e-07 | 200000 |  | 
B19 | 0.21 | 2.8 | 0.00048 | 170000 |  | 
B20 |  |  |  |  | 27.2 | 31800
B21 |  |  |  |  | 37.2 | 147000
B22 | 0.26 | 3 | 0.0006 | 200000 |  | 
B23 | 0.09 | 2.5 | 0.00047 | 190000 |  | 
B24 | 0.26 | 1.1 | 0.00013 | 110000 |  | 
B25 | 0.19 | 3.2 | 0.00051 | 160000 |  | 
B26 |  |  |  |  | 28.6 | 123000
B27 | 0.21 | 0.79 | 0.00013 | 160000 |  | 
B28 |  |  |  |  | 31.1 | 241000
